Consider 3 molecules from patent US20200115464A1 (Regeneron, published 2020).

For assay [1], the target named is T1, human CD20 on cells (Raji, CD3-, CD20+ human B-cell line; B16F10.9/CD20 cells) (human, UniProt P11836 1-297).
T1 sequence (looked up): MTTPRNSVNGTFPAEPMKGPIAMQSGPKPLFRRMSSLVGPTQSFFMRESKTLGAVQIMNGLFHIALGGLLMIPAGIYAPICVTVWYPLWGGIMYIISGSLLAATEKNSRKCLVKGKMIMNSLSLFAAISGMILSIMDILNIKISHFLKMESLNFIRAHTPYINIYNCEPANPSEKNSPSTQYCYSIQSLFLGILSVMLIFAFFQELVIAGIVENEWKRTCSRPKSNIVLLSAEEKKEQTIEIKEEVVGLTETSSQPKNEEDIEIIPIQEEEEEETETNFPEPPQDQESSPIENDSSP
Description: cell-based or functional assay.

Assay [2] addresses T2, His-tagged human FcγRIIA (H131) (human, UniProt P12318 36-218, limits assumed).
T2 construct: also called hFcyRIIA (H131)
T2 sequence (looked up): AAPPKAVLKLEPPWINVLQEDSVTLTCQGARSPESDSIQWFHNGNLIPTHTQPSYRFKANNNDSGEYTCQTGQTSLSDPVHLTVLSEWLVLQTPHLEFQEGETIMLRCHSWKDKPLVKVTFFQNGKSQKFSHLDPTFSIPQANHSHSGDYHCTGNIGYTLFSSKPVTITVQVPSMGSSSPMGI
Description: SPR steady-state, His-captured FcγR, antibody injected, 25 C.

Assay [3] has as its target T3, His-tagged human FcγRIIIB (human, UniProt O75015 17-200).
T3 construct: also called human FcyRIIIB
Described as above.

Assay [4] has as its target T4, His-tagged human FcγRIIA (R131) (human, UniProt P12318 36-218, limits assumed).
T4 construct: also called human FcyRIIA (R131)
T4 sequence (looked up): T2 sequence (looked up) with H132R
The description is as above.

Assay [5] addresses T5, His-tagged human FcγRIIIA (V176) (human, UniProt P08637 17-208).
T5 construct: also called human FcyRIIIA (V176)
The assay is described as above.

For assay [6], the target named is T6, His-tagged human FcγRIIIA (F176) (human, UniProt P08637 17-208).
T6 construct: also called human FcyRIIIA (F176)
T6 sequence (P08637 17-208 limits assumed): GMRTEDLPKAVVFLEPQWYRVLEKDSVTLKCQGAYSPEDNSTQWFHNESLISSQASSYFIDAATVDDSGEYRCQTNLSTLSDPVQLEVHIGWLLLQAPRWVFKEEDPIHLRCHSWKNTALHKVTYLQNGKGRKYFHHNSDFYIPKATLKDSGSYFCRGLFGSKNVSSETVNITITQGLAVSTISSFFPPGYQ
Described as above.

The target in assay [7] is T7, His-tagged cynomolgus FcγRIIA (cynomolgus monkey, UniProt A0A140HDN0 30-216).
T7 construct: also called cyno FcyRIIA
T7 sequence: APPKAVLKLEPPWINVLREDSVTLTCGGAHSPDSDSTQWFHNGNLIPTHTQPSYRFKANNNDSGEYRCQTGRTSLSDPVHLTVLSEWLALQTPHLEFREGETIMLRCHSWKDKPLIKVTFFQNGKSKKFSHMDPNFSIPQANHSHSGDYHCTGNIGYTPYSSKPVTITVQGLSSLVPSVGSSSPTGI
The description is as above.

Assay [8] addresses T8, His-tagged cynomolgus FcγRIIB (cynomolgus monkey, UniProt A0A140HDP4 46-217).
T8 construct: also called cyno FcyRIIB
T8 sequence: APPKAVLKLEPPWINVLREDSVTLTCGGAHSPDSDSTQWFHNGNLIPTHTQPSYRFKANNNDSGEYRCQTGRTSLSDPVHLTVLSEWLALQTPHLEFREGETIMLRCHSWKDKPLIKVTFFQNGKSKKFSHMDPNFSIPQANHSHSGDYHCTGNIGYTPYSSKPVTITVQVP
Described as above.

In assay [9] the target is T9, His-tagged cynomolgus FcγRIIIA (cynomolgus monkey, UniProt Q8SPW2 17-208, limits assumed).
T9 construct: also called cyno FcyRIIIA
T9 sequence (Q8SPW2 17-208 limits assumed): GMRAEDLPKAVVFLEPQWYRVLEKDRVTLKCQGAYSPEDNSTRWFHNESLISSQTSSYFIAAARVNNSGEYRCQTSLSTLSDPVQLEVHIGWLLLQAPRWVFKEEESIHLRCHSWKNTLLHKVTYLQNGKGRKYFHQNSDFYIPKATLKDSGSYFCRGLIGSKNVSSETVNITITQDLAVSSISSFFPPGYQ
The assay is described as above.

In a further assay the target is T10, His-tagged human FcγRIIB (human, UniProt P31994 46-217, limits assumed).
T10 construct: also called human FcyRIIB
T10 sequence (looked up): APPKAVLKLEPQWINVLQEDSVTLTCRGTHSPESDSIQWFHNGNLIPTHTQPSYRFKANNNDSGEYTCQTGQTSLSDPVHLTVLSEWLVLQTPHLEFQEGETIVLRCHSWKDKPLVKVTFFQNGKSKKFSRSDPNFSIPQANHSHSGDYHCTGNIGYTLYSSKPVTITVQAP
The description is as above.

Assay [10] concerns the target T1, human CD20 on cells (Raji, CD3-, CD20+ …). Description: cell-based or functional assay. This is another data set of the same source.
The target of another assay is T11, His-tagged human FcγRI (human, UniProt P12314 16-288).
T11 construct: also called human FcRγI; hFcγRI
T11 sequence (P12314 16-288 limits assumed): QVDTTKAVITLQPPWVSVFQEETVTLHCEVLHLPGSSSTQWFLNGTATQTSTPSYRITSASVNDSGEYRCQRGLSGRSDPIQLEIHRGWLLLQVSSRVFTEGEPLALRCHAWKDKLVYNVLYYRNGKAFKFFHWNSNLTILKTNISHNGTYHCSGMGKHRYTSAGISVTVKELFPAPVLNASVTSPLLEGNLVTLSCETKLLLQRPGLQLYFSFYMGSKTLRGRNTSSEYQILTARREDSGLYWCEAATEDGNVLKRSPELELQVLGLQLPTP
The experiment in a line: SPR (Biacore T200), His-captured human FcγRI, antibody injected, 25 C. As to the method: Briefly, SPR experiments were performed at 25° C. on a Biacore T200 instrument employing a carboxymethyl dextran-coated (CM-5) chip. A mouse monoclonal anti-penta-histidine antibody (GE Healthcare) was immobilized on the surface of the CM-5 sensor chip using standard amine-coupling chemistry. […] Kinetic association (kₐ) and dissociation (kd) rate constants were determined by processing and fitting the data to a 1:1 binding model using Scrubber 2.0 curve fitting software. Binding dissociation equilibrium constants (KD) and dissociative half-lives (t_{1/2}) were calculated from the kinetic rate constants as: KD (M)=kd/kₐ; and t_{1/2}(min)=(ln 2/(60*kd).

In assay [11] the target is T12, human CD3 on Jurkat cells (CD3+, CD20- human T-cell line) (human, UniProt P07766 23-207; P04234 22-171; P09693 23-182; P20963 22-164).
T12 construct: whole, on cells; SP34 is said to react with the epsilon chain
The experiment in a line: FACS, serially diluted antibody on Jurkat cells (CD3+, CD20-). How it is done: (§1) FACS data was acquired using the following protocol: Cells at 2×10⁵ per well were incubated with serially diluted antibodies for 30 min on ice. Post incubation, cells were washed and appropriate secondary (Jurkat, RAJI cells) or cocktail of secondary antibodies (for cyno PBMC) was added and incubated for an additional 30 minutes. After incubation, cells were washed, re-suspended in cold PBS containing 1% BSA and analyzed by flow cytometry on a BD FACS Canto II. Jurkat and Raji cells were gated by side and forward scatters, while cynomolgus T cells were also gated as a CD2+CD4+ population. The EC₅₀s for cell binding titration were determined using Prism software with values calculated using a 4-parameter non-linear regression analysis.
(In general: In flow cytometry, cells or beads pass a laser one at a time.)

The target in assay [12] is T13, cynomolgus CD3 on T cells of cynomolgus PBMCs (mkT cells) (cynomolgus monkey).
T13 construct: whole, on cells; also called cynomolgus T cells; monkey T-cells
The experiment in a line: FACS, serially diluted antibody on cynomolgus PBMC T cells (mkT cells). How it is done: as §1

Assay [13] concerns the target T1, human CD20 on cells (Raji, CD3-, CD20+ …). Description: cell-based or functional assay. The source holds these as a separate data set.
Assay [14] has the same target. The experiment in a line: FACS, serially diluted antibody on Raji cells (CD3-, CD20+). How it is done:
as §1

Numbering of substitutions follows the chain as printed.

T5 sequence (P08637 17-208 F176V limits assumed): as the sequence (P08637 17-208 limits assumed) above, with F160V counted along it
T3 sequence (O75015 17-200 limits assumed): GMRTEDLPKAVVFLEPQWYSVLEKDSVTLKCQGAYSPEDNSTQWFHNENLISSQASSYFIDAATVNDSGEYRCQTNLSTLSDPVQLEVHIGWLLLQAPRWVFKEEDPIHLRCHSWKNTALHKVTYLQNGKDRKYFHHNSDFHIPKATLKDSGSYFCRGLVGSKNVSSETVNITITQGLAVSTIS

B1: Antibody 1 (CD3×CD20-chimericFc bispecific antibody) (bispecific antibody, human IgG4 S228P)
heavy 1: EVQLVESGGGLVQPGRSLRLSCVASGFTFNDYAMHWVRQAPGKGLEWVSVISWNSDSIGYADSVKGRFTISRDNAKNSLYLQMHSLRAEDTALYYCAKDNHYGSGSYYYYQYGMDVWGQGTTVTVSSASTKGPSVFPLAPCSRSTSESTAALGCLVKDYFPEPVTVSWNSGALTSGVHTFPAVLQSSGLYSLSSVVTVPSSSLGTKTYTCNVDHKPSNTKVDKRVESKYGPPCPPCPAPPVAGPSVFLFPPKPKDTLMISRTPEVTCVVVDVSQEDPEVQFNWYVDGVEVHNAKTKPREEQFNSTYRVVSVLTVLHQDWLNGKEYKCKVSNKGLPSSIEKTISKAKGQPREPQVYTLPPSQEEMTKNQVSLTCLVKGFYPSDIAVEWESNGQPENNYKTTPPVLDSDGSFFLYSRLTVDKSRWQEGNVFSCSVMHEALHNHYTQKSLSLSLGK
heavy 2: EVQLVESGGGLVQPGRSLRLSCAASGFTFDDYTMHWVRQAPGKGLEWVSGISWNSGSIGYADSVKGRFTISRDNAKKSLYLQMNSLRAEDTALYYCAKDNSGYGHYYYGMDVWGQGTTVTVASASTKGPSVFPLAPCSRSTSESTAALGCLVKDYFPEPVTVSWNSGALTSGVHTFPAVLQSSGLYSLSSVVTVPSSSLGTKTYTCNVDHKPSNTKVDKRVESKYGPPCPPCPAPPVAGPSVFLFPPKPKDTLMISRTPEVTCVVVDVSQEDPEVQFNWYVDGVEVHNAKTKPREEQFNSTYRVVSVLTVLHQDWLNGKEYKCKVSNKGLPSSIEKTISKAKGQPREPQVYTLPPSQEEMTKNQVSLTCLVKGFYPSDIAVEWESNGQPENNYKTTPPVLDSDGSFFLYSRLTVDKSRWQEGNVFSCSVMHEALHNRFTQKSLSLSLGK
VL: EIVMTQSPATLSVSPGERATLSCRASQSVSSNLAWYQQKPGQAPRLLIYGASTRATGIPARFSGSGSGTEFTLTISSLQSEDFAVYYCQHYINWPLTFGGGTKVEIKR
notes: Only the light chain variable region is tied to this antibody; also called Ab 1; Ab1
What is called Kd is the concentration at which binding is half-saturated. For B1, in [1], the “% Survival B16F10.9/CD20 cells [M] (EC50, target-specific killing, FACS)” value was found to be 1.95e-11 M. Further, the Kd in assay [2] came out at 120 nM; in assay [4] it was 193 nM; in assay [7] it was 231 nM; in assay [8] it was 139 nM; in [9], 663 nM; with His-tagged human FcγRIIB it was 1230 nM. For the same molecule, the binding result (in [3]; in assay [5]; in assay [6]; in the assay with His-tagged human FcγRI) was “no binding” in each case. Also, the “Raji Cytotoxicity Activated Human T-cells [M] (EC50, calcein release)” value in [10] was 2.5e-11 M. Moreover, in assay [10], the “Raji Cytotoxicity Activated Monkey T-cells [M] (EC50, calcein release)” value was 9.1e-12 M.

B2: (Control) Antibody 4, CD3×CD20 antibody-wild-type Fc (wtFc) (bispecific antibody, human IgG1)
heavy 1: not shown
heavy 2: not shown
VL: B1 VL
notes: Same variable regions as Antibody 1 and Antibody 2, wild-type IgG1 CH; also called Control Ab 4; Control 4
The term EC50 denotes the midpoint of the concentration-response curve. In [11], B2 returned an EC50 of 38.5 nM. For the same molecule, in assay [12], the EC50 is 8.74 µM. Besides, the “% Survival B16F10.9/CD20 cells [M] (EC50, target-specific killing, FACS)” value in [1] worked out at 1.28e-11 M. In [13], the “Raji Cytotoxicity Human T-cells [M] (EC50, calcein release)” value is 5.63e-11 M and the “Raji Cytotoxicity Monkey T-cells [M] (EC50, calcein release)” value is 1.27e-12 M. Also, in assay [14], a half-maximal response (EC50) required 59.9 nM. In assay [10], the “Raji Cytotoxicity Activated Human T-cells [M] (EC50, calcein release)” value is 1.57e-11 M and the “Raji Cytotoxicity Activated Monkey T-cells [M] (EC50, calcein release)” value is 1.73e-12 M.

B3: Antibody 2 (CD3×CD20-chimericFc bispecific antibody) (bispecific antibody, human IgG1)
heavy 1: EVQLVESGGGLVQPGRSLRLSCVASGFTFNDYAMHWVRQAPGKGLEWVSVISWNSDSIGYADSVKGRFTISRDNAKNSLYLQMHSLRAEDTALYYCAKDNHYGSGSYYYYQYGMDVWGQGTTVTVSSASTKGPSVFPLAPSSKSTSGGTAALGCLVKDYFPEPVTVSWNSGALTSGVHTFPAVLQSSGLYSLSSVVTVPSSSLGTQTYICNVNHKPSNTKVDKKVEPKSCDKTHTCPPCPAPPVAGPSVFLFPPKPKDTLMISRTPEVTCVVVDVSQEDPEVQFNWYVDGVEVHNAKTKPREEQFNSTYRVVSVLTVLHQDWLNGKEYKCKVSNKGLPSSIEKTISKAKGQPREPQVYTLPPSRDELTKNQVSLTCLVKGFYPSDIAVEWESNGQPENNYKTTPPVLDSDGSFFLYSKLTVDKSRWQQGNVFSCSVMHEALHNHYTQKSLSLSPGK
heavy 2: EVQLVESGGGLVQPGRSLRLSCAASGFTFDDYTMHWVRQAPGKGLEWVSGISWNSGSIGYADSVKGRFTISRDNAKKSLYLQMNSLRAEDTALYYCAKDNSGYGHYYYGMDVWGQGTTVTVASASTKGPSVFPLAPSSKSTSGGTAALGCLVKDYFPEPVTVSWNSGALTSGVHTFPAVLQSSGLYSLSSVVTVPSSSLGTQTYICNVNHKPSNTKVDKKVEPKSCDKTHTCPPCPAPPVAGPSVFLFPPKPKDTLMISRTPEVTCVVVDVSQEDPEVQFNWYVDGVEVHNAKTKPREEQFNSTYRVVSVLTVLHQDWLNGKEYKCKVSNKGLPSSIEKTISKAKGQPREPQVYTLPPSRDELTKNQVSLTCLVKGFYPSDIAVEWESNGQPENNYKTTPPVLDSDGSFFLYSKLTVDKSRWQQGNVFSCSVMHEALHNRFTQKSLSLSPGK
VL: B1 VL
notes: also called Ab 2
For the molecule B3, the Kd in assay [2] was 117 nM; in assay [4], 205 nM; in assay [7], 235 nM; in assay [8], 146 nM; in [9], 424 nM; with His-tagged human FcγRIIB, 2330 nM. In addition, the binding result (in assay [3]; in assay [5]; in assay [6]; in the assay with His-tagged human FcγRI) was “no binding” each time.
